Measurements reported in patent US20250002945, “NEW TALE PROTEIN SCAFFOLDS WITH IMPROVED ON-TARGET/OFF-TARGET ACTIVITY RATIOS” (CELLECTIS SA, published 2025).

Assays:
Settings in all cases: tags: SV40 NLS; FokI fusion
IgH (2) right V2 TALEN = target: T1, IgH (2) right V2 TALEN (synthetic, UniProt Q56830 SEQ:15-719); assay: cell_activity; T cells, mostly above 70%
T1 chain: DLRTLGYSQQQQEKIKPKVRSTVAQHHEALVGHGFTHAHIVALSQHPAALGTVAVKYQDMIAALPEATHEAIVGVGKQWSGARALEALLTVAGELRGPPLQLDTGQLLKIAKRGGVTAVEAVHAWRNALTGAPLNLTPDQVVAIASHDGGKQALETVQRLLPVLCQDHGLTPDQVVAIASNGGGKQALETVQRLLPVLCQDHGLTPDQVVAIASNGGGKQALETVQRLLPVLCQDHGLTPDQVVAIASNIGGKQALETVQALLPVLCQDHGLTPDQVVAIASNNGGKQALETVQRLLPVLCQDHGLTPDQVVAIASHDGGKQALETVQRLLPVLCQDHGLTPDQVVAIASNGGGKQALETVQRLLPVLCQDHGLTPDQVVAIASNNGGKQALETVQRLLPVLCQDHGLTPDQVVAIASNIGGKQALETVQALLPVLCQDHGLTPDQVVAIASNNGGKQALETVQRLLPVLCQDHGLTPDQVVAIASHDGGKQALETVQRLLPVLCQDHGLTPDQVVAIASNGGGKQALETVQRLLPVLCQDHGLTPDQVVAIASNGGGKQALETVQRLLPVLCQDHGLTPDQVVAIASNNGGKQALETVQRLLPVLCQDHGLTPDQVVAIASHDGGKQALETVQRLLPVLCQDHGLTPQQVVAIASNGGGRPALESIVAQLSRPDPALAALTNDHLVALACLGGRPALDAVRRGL

GADPH (1) left V2 TALEN = target: T2, GADPH (1) left V2 TALEN (synthetic, UniProt Q56830 SEQ:15-719); assay: cell_activity; T cells, mostly above 70%
T2 chain: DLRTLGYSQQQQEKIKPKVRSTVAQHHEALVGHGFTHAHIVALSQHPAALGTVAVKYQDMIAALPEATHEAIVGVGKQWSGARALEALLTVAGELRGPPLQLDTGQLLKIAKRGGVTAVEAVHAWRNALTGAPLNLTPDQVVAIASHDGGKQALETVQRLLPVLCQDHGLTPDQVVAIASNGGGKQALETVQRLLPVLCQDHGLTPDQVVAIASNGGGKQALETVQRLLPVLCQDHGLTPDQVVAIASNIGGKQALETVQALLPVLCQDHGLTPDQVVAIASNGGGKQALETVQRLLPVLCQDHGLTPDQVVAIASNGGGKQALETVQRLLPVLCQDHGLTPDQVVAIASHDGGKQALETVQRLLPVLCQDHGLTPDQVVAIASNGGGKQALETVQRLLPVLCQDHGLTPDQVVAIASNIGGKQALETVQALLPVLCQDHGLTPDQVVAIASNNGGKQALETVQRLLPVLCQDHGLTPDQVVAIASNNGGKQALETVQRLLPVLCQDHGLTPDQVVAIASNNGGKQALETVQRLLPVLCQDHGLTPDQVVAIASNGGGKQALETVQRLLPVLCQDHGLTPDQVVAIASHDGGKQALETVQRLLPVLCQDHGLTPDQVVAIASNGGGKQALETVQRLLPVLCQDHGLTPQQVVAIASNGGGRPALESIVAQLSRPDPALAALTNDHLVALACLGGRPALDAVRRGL

IgH (2) left V2 TALEN = target: T3, IgH (2) left V2 TALEN (synthetic, UniProt Q56830 SEQ:15-719); assay: cell_activity; T cells, mostly above 70%
T3 chain: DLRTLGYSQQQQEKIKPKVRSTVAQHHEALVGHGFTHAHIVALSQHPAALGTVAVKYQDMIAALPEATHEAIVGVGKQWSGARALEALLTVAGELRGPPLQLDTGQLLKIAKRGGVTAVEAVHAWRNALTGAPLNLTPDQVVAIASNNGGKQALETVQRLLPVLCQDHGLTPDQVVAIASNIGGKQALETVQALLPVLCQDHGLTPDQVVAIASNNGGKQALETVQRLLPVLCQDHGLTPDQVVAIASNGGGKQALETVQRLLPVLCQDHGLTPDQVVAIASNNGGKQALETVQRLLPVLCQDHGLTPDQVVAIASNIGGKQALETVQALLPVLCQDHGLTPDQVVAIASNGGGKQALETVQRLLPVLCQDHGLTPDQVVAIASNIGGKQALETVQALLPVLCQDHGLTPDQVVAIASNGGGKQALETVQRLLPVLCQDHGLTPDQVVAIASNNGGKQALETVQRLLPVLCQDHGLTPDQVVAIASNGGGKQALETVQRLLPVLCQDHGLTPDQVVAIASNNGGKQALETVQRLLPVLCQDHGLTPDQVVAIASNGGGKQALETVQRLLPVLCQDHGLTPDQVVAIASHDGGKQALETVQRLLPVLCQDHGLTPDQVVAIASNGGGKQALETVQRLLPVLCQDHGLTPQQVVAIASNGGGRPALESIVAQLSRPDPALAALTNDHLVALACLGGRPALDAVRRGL

[1] = target: CS1 TALEN left V0 FokI D84A (synthetic, UniProt Q56830, D84A (FokI domain, SEQ ID NO:109 numbering)); assay: cell_activity; paired with V0 monomer
[2] = target: CS1 TALEN left V0 FokI G91A (synthetic, UniProt Q56830, G91A (FokI domain, SEQ ID NO:109 numbering)); assay: cell_activity; paired with V0 monomer
[3] = target: CS1 TALEN left V0 FokI Y88A (synthetic, UniProt Q56830, Y88A (FokI domain, SEQ ID NO:109 numbering)); assay: cell_activity; paired with V0 monomer
GADPH (2) right V2 TALEN = target: T4, GADPH (2) right V2 TALEN (synthetic, UniProt Q56830 SEQ:15-719); assay: cell_activity; T cells, mostly above 70%
T4 chain: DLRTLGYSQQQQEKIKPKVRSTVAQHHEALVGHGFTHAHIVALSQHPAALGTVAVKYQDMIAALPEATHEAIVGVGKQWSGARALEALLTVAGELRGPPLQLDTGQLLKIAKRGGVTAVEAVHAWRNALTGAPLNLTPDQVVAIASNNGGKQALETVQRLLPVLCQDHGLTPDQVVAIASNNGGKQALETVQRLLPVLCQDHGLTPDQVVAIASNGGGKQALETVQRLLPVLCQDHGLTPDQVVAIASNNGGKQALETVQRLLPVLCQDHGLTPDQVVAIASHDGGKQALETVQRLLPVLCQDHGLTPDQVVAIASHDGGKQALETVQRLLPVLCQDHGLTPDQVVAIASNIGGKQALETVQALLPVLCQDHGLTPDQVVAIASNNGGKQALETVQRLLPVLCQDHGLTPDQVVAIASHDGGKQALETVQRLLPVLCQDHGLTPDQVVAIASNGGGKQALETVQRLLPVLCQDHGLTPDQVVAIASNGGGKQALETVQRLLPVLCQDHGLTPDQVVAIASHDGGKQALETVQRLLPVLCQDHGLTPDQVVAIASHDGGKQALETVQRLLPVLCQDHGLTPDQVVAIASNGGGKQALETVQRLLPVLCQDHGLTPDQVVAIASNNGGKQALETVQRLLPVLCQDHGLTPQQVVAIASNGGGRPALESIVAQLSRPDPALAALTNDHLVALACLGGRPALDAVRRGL

GADPH (1) right V2 TALEN = target: T5, GADPH (1) right V2 TALEN (synthetic, UniProt Q56830 SEQ:15-719); assay: cell_activity; T cells, mostly above 70%
T5 chain: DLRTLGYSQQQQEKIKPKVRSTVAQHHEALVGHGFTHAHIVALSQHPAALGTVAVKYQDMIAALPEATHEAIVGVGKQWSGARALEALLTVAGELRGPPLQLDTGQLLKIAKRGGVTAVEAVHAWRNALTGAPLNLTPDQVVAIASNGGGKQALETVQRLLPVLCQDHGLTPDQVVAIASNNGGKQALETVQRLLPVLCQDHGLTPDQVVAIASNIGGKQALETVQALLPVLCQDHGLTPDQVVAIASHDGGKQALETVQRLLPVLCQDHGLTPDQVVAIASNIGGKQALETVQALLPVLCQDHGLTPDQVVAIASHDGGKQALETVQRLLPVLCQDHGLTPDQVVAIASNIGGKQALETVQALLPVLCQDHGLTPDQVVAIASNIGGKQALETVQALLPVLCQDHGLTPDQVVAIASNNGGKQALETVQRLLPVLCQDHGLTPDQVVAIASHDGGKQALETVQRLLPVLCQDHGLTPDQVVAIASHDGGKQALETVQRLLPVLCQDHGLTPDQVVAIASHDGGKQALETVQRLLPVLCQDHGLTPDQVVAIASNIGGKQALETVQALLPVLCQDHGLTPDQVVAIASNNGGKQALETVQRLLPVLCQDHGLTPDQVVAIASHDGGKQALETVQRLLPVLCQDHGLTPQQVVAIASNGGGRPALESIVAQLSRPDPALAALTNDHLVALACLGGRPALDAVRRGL

GADPH (2) left V2 TALEN = target: T6, GADPH (2) left V2 TALEN (synthetic, UniProt Q56830 SEQ:15-719); assay: cell_activity; T cells, mostly above 70%
T6 chain: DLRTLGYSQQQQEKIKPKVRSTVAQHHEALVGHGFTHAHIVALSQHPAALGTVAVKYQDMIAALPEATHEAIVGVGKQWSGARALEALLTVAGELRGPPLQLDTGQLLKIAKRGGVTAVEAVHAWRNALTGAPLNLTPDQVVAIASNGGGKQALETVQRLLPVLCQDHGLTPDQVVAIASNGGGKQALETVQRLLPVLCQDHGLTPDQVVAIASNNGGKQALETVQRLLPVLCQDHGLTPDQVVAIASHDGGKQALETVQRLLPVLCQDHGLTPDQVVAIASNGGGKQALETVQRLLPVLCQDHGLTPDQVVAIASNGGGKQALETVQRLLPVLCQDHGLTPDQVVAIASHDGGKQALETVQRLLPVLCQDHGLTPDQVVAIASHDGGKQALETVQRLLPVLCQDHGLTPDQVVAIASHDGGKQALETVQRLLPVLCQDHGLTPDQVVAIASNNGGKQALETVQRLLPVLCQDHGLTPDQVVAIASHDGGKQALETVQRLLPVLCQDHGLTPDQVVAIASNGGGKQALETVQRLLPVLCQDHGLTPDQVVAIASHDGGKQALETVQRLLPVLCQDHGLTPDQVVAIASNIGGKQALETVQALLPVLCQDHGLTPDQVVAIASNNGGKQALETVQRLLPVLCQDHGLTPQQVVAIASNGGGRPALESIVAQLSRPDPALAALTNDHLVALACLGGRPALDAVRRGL

B1: IgH (2) right half-site (dsDNA)
DNA 1: AGCAAGCTCAGCTAAGA
DNA 2: TCTTAGCTGAGCTTGCT
activity (IgH (2) right V2 TALEN): > 50 % indels

B2: GADPH (1) left half-site (dsDNA)
DNA 1: TCTTATTCTAGGGTCTG
DNA 2: CAGACCCTAGAATAAGA
activity (GADPH (1) left V2 TALEN): > 50 % indels

B3: IgH (2) left half-site (dsDNA)
DNA 1: TGAGTGATATGTGTCTG
DNA 2: CAGACACATATCACTCA
activity (IgH (2) left V2 TALEN): > 50 % indels

B4: CS1 left half-site (dsDNA)
DNA 1: TTCCAGAGAGCAATATG
DNA 2: CATATTGCTCTCTGGAA
binding signal [1]: > 100 % of WT FokI | binding signal [2]: > 100 % of WT FokI | binding signal [3]: > 100 % of WT FokI

B5: GADPH (2) right half-site (dsDNA)
DNA 1: ACAGGAAGCTGGCACCA
DNA 2: TGGTGCCAGCTTCCTGT
activity (GADPH (2) right V2 TALEN): > 50 % indels

B6: GADPH (1) right half-site (dsDNA)
DNA 1: AGCTGGGCTTGTGTCAA
DNA 2: TTGACACAAGCCCAGCT
activity (GADPH (1) right V2 TALEN): > 50 % indels

B7: GADPH (2) left half-site (dsDNA)
DNA 1: TTTGCTTCCCGCTCAGA
DNA 2: TCTGAGCGGGAAGCAAA
activity (GADPH (2) left V2 TALEN): > 50 % indels
